Results: patent publication US20130243743A1 (ACCELERON PHARMA, published 2013)
Changes are numbered by the printed parent chain. Where two headings read alike, the source gives them in different places.

Tests used:
Activin A [1] = molecular target: T1, Activin A (UniProt P08476 311-426); assay: cell-based or functional assay
T1 sequence (looked up): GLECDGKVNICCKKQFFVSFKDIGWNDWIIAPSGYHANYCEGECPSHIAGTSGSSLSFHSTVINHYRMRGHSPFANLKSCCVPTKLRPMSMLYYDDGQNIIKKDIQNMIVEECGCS

[2] = molecular target: T2, Growth and Differentiation Factor-11 (GDF11) (UniProt O95390 299-407); assay: cell-based or functional assay
T2 sequence (looked up): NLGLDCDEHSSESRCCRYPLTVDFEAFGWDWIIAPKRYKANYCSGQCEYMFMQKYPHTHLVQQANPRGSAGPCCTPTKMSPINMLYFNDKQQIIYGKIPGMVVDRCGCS

Activin A [3] = molecular target: T1, Activin A; assay: Biacore SPR; ligand coupled to the device, receptor flowed (table reproduced from WO2006/012627); +15tail variant; ligand coupled to the device, receptor flowed over it (data from WO2006/012627)
[4] = molecular target: T2, Growth and Differentiation Factor-11 …; assay: as above

B1: ActRIIB(20-134)-hFc (Fc fusion, not shown: a dimerising Fc or GST)
chain: GRGEAETRECIYYNANWELERTNQSGLERCEGEQDKRLHCYASWRNSSGTIELVKKGCWLDDFNCYDRQECVATEENPQVYFCCCEGNFCNERFTHLPEAGGPEVTYEPPPTAPT
- IC50, inhibition of ligand signalling, A-204 reporter gene assay (conditioned media) (Activin A [1]): 0.022 mg/L
- IC50, inhibition of ligand signalling, A-204 reporter gene assay (conditioned media) [2]: 0.045 mg/L

B2: Soluble ActRIIB-Fc +15tail (Fc fusion)
chain: B1 chain with R45A
notes: not shown: linker and Fc
- Kd (Activin A [3]): ~0.026 µM
- Kd [4]: 0.019 µM

B3: ActRIIB(24-131)-hFc (Fc fusion, not shown: a dimerising Fc or GST)
chain: AETRECIYYNANWELERTNQSGLERCEGEQDKRLHCYASWRNSSGTIELVKKGCWLDDFNCYDRQECVATEENPQVYFCCCEGNFCNERFTHLPEAGGPEVTYEPPPT
- IC50, inhibition of ligand signalling, A-204 reporter gene assay (conditioned media) (Activin A [1]): 0.105 mg/L
- IC50, inhibition of ligand signalling, A-204 reporter gene assay (conditioned media) [2]: 0.069 mg/L

B4: ActRIIB(22-131)-hFc (Fc fusion, not shown: a dimerising Fc or GST)
chain: GEAETRECIYYNANWELERTNQSGLERCEGEQDKRLHCYASWRNSSGTIELVKKGCWLDDFNCYDRQECVATEENPQVYFCCCEGNFCNERFTHLPEAGGPEVTYEPPPT
- IC50, inhibition of ligand signalling, A-204 reporter gene assay (conditioned media) (Activin A [1]): 0.1 mg/L
- IC50, inhibition of ligand signalling, A-204 reporter gene assay (conditioned media) [2]: 0.071 mg/L

B5: ActRIIB(23-131)-hFc (Fc fusion, not shown: a dimerising Fc or GST)
chain: EAETRECIYYNANWELERTNQSGLERCEGEQDKRLHCYASWRNSSGTIELVKKGCWLDDFNCYDRQECVATEENPQVYFCCCEGNFCNERFTHLPEAGGPEVTYEPPPT
- IC50, inhibition of ligand signalling, A-204 reporter gene assay (conditioned media) (Activin A [1]): 0.043 mg/L
- IC50, inhibition of ligand signalling, A-204 reporter gene assay (conditioned media) [2]: 0.06 mg/L

B6: ActRIIB(20-132)-hFc (Fc fusion, not shown: a dimerising Fc or GST)
chain: GRGEAETRECIYYNANWELERTNQSGLERCEGEQDKRLHCYASWRNSSGTIELVKKGCWLDDFNCYDRQECVATEENPQVYFCCCEGNFCNERFTHLPEAGGPEVTYEPPPTA
- IC50, inhibition of ligand signalling, A-204 reporter gene assay (conditioned media) (Activin A [1]): 0.032 mg/L
- IC50, inhibition of ligand signalling, A-204 reporter gene assay (conditioned media) [2]: 0.087 mg/L

B7: ActRIIB(21-131)-hFc (Fc fusion, not shown: a dimerising Fc or GST)
chain: RGEAETRECIYYNANWELERTNQSGLERCEGEQDKRLHCYASWRNSSGTIELVKKGCWLDDFNCYDRQECVATEENPQVYFCCCEGNFCNERFTHLPEAGGPEVTYEPPPT
- IC50, inhibition of ligand signalling, A-204 reporter gene assay (conditioned media) (Activin A [1]): 0.325 mg/L
- IC50, inhibition of ligand signalling, A-204 reporter gene assay (conditioned media) [2]: 0.121 mg/L

B8: ActRIIB(20-131)-hFc (Fc fusion, not shown: a dimerising Fc or GST)
chain: GRGEAETRECIYYNANWELERTNQSGLERCEGEQDKRLHCYASWRNSSGTIELVKKGCWLDDFNCYDRQECVATEENPQVYFCCCEGNFCNERFTHLPEAGGPEVTYEPPPT
- IC50, inhibition of ligand signalling, A-204 reporter gene assay (conditioned media) (Activin A [1]): 0.201 mg/L
- IC50, inhibition of ligand signalling, A-204 reporter gene assay (conditioned media) (Activin A [1]; record 2): 0.044 mg/L
- IC50, inhibition of ligand signalling, A-204 reporter gene assay (conditioned media) [2]: 0.183 mg/L
- IC50, inhibition of ligand signalling, A-204 reporter gene assay (conditioned media) ([2]; record 2): 0.12 mg/L

B9: ActRIIB(20-128)-hFc (Fc fusion, not shown: a dimerising Fc or GST)
chain: GRGEAETRECIYYNANWELERTNQSGLERCEGEQDKRLHCYASWRNSSGTIELVKKGCWLDDFNCYDRQECVATEENPQVYFCCCEGNFCNERFTHLPEAGGPEVTYEP
- IC50, inhibition of ligand signalling, A-204 reporter gene assay (conditioned media) (Activin A [1]): 0.158 mg/L
- IC50, inhibition of ligand signalling, A-204 reporter gene assay (conditioned media) [2]: 0.13 mg/L
